Measurements from US9322042B2, “Thermostable cellulases, and mutants thereof, capable of hydrolyzing cellulose in ionic liquid” (The Regents of the University of California, priority 2009, dated 2016).

B1: Pho EG: cellulase of Pyrococcus horikoshii strain OT3 (Accession No. NP_143072); SEQ ID NO: 21 (protein, listed as Pyrococcus horikoshii)
chain: MEGNTILKIVLICTILAGLFGQVVPVYAENTTYQTPTGIYYEVRGDTIYMINVTSGEETPIHLFGVNWFGFETPNHVVHGLWKRNWEDMLLQIKSLGFNAIRLPFCTESVKPGTQPIGIDYSKNPDLRGLDSLQIMEKIIKKAGDLGIFVLLDYHRIGCTHIEPLWYTEDFSEEDFINTWIEVAKRFGKYWNVIGADLKNEPHSVTSPPAAYTDGTGATWGMGNPATDWNLAAERIGKAILKVAPHWLIFVEGTQFTNPKTDSSYKWGYNAWWGGNLMAVKDYPVNLPRNKLVYSPHVYGPDVYNQPYFGPAKGFPDNLPDIWYHHFGYVKLELGYSVVIGEFGGKYGHGGDPRDVIWQNKLVDWMIENKFCDFFYWSWNPDSGDTGGILQDDWTTIWEDKYNNLKRLMDSCSKSSSSTQSVIRSTTPTKSNTSKKICGPAILIILAVFSLLLRRAPR
B2: Tma Cel5A: wild-type cellulase of Thermatoga maritima strain MSB8 (Accession No. NP_229549); SEQ ID NO: 20 (protein, listed as Thermotoga maritima)
chain: MGVDPFERNKILGRGINIGNALEAPNEGDWGVVIKDEFFDIIKEAGFSHVRIPIRWSTHAYAFPPYKIMDRFFKRVDEVINGALKRGLAVVINIHHYEELMNDPEEHKERFLALWKQIADRYKDYPETLFFEILNEPHGNLTPEKWNELLEEALKVIRSIDKKHTIIIGTAEWGGISALEKLSVPKWEKNSIVTIHYYNPFEFTHQGAEWVEGSEKWLGRKWGSPDDQKHLIEEFNFIEEWSKKNKRPIYIGEFGAYRKADLESRIKWTSFVVREMEKRRWSWAYWEFCSGFGVYDTLRKTWNKDLLEALIGGDSIE

How the values were obtained:
Type in all cases: biochemical
[1] = Activity assay on insoluble substrate: Avicel
Description: (§1) Corn stover refers to stalks, leaves and cobs that remain in the fields after the corn kernel harvest and is the largest quantity of biomass residue in the United States and as such is also a LC-biomass source for producing cellulosic ethanol in the United States. [C2mim][OAc] pretreated corn stover is used as a substrate to verify enzymatic efficiency on IL-pretreated biomass and a comparison made with [C2mim][OAc] pretreated Avicel. Avicel is a commercially available microcrystalline cellulose and a good model substrate for analysis. Similar assays are done in the presence of [C2mim][OAc] to simulate real biomass processing and saccharification scenarios. The assay products for the reactions in the presence of IL are detected by high performance anion exchange chromatography (HPAEC). The enzymatic hydrolysis reaction is carried out for 8 h for the T. viride cellulase and 15 h for the hyperthermophilic enzymes, taking into account the half-lives of these enzymes. To compare the amounts of total sugars formed between different reactions, the sum of glucose, xylose and cellobiose are calculated and reported as mmoles of sugars formed per min per mg of enzyme used (Table 7). A comparison of assay results between pretreated and untreated substrate indicates a 2-6 fold increase in hydrolysis products after pretreatment irrespective of the enzyme used, thereby confirming that IL pretreatment can increase the efficiency of hydrolysis of cellulose recovered from biomass. […] The catalytic efficiency of the fungal enzyme however, decreases with increasing IL concentration in the reaction mix. After normalizing for the reaction time and enzyme amounts, the amount of sugars formed is undetectable at 15% [C2mim][OAc]. […] The yield of sugars from Tma Cel5A hydrolysis of pretreated Avicel in the presence of 15% IL decreases by 43% compared to 0% IL, while the decrease is only 10% in the case of Pho EG on the same substrate under similar conditions (Table 7).
(§2) The hydrolysis reactions are performed under pH and temperatures for each enzyme as described herein. The reactions are run over a 14 h period with 5-10 mg of enzyme with 6% (w/v) enzyme loading in optimum buffer for each enzyme and run in duplicate. The reaction products are measured on a HPLC and HPAEC. The amounts of sugars detected are shown in mmoles and normalized with regards to amount of enzyme and time of reaction. Different reactions under each enzyme were run under exactly similar conditions.
(§3) Enzymatic activity is measured on soluble polysaccharide substrates, CMC, using the 3,5-dinitrosalicylic acid (DNS) reducing sugar assay. Briefly, 2% CMC (w/v) in […] acetate buffer, (100 mM, pH 4.5 and pH 4.8 for T. viride and Tma, respectively, and 100 mM MES buffer, pH 6.4 for P. hori EG) is incubated at 80° C. for 30 min for Tma Cel5A and Pho enzymes and 37° C. and 10 min for T. viride. The solution is cooled down to 4° C. and […] of DNS solution is added. The reactants are incubated at 95° C. for 5 min and cooled down to room temperature before the absorbance is read at 540 nm. The reducing sugar concentration in the sample is calculated from its absorbance using the standard curve of D-glucose and cellobiose. For hydrolysis reactions in the presence of [C2mim][OAc], control reactions with CMC in the presence of IL but without no enzyme is subtracted from each measurement. The solid substrate (Avicel and corn stover) hydrolysis reactions are conducted at 80° C. for 15 h for the recombinant enzymes and at 37° C. for 8 h in the case of T. viride cellulose at the optimum pH for each enzyme. The reaction products are monitored using an Agilent 1200 HPLC equipped with Varian 380-LC Evaporative Light Scattering Detector. The total reaction volumes are […] and shaken at 900 rpm at temperature controlled shakers. Enzyme loadings are 0.4 mg per g of glucan and each data point is measured in triplicate. […]

[2] = Activity assay on insoluble substrate: corn stover
Description: as §1, §2, §3

[3] = Activity assay on insoluble substrate: [C2mim][OAc] pretreated corn stover; details: pCorn stover
Description: as §1, §2
(§4) [C2mim][OAc] (1 kg, as received, <0.2% moisture specified) is heated to 130° C. in a 1.5 L glass reaction vessel with mechanical stirring and 8% w/w (corn stover, 4.8% moisture) or 10% w/w (Avicel PH-101, 3% moisture). After around 3 h when the majority (corn stover) or all (Avicel) has dissolved, the dissolved corn stover or Avicel is allowed to cool to below 80° C. and is added to 2 L of 95% ethanol with rapid agitation to induce the precipitation of dissolved materials. The resulting slurry is filtered under pressure through polypropylene filter cloth and the solids redispersed in 2 L of additional ethanol. The filtration and redispersion steps are repeated twice to remove most residual ionic liquid and the filter cake dried under vacuum at 40° C. to yield a free-flowing powder product. Residual free ionic liquid remaining in the dried biomass is estimated to be less than 4% (w/w).
(§5) Enzymatic activity is measured on soluble polysaccharide substrates, CMC, using the 3,5-dinitrosalicylic acid (DNS) reducing sugar assay. Briefly, 2% CMC (w/v) in […] acetate buffer, (100 mM, pH 4.5 and pH 4.8 for T. viride and Tma, respectively, and 100 mM MES buffer, pH 6.4 for P. hori EG) is incubated at 80° C. for 30 min for Tma Cel5A and Pho enzymes and 37° C. and 10 min for T. viride. The solution is cooled down to 4° C. and […] of DNS solution is added. The reactants are incubated at 95° C. for 5 min and cooled down to room temperature before the absorbance is read at 540 nm. […]

[4] = Activity assay on insoluble substrate: [C2mim][OAc] pretreated Avicel; details: for decrease of the yield of sugars from hydrolysis of pretreated Avicel: 15% IL compared to 0% IL; for Sugars produced (sum of glucose, cellobiose and xylose): pAvicel
Description: as §1, §2, §4, §5

Molecule | Sugars produced (sum of glucose, cellobiose and xylose) ([1]; 0% [C2mim][OAc]) [µmol/min/mg] | Sugars produced (sum of glucose, cellobiose and xylose) ([1]; 5% [C2mim][OAc]) [µmol/min/mg] | Sugars produced (sum of glucose, cellobiose and xylose) ([1]; 10% [C2mim][OAc]) [µmol/min/mg] | Sugars produced (sum of glucose, cellobiose and xylose) ([1]; 15% [C2mim][OAc]) [µmol/min/mg] | Sugars produced (sum of glucose, cellobiose and xylose) ([2]; 0% [C2mim][OAc]) [µmol/min/mg] | Sugars produced (sum of glucose, cellobiose and xylose) ([2]; 5% [C2mim][OAc]) [µmol/min/mg] | Sugars produced (sum of glucose, cellobiose and xylose) ([2]; 10% [C2mim][OAc]) [µmol/min/mg] | Sugars produced (sum of glucose, cellobiose and xylose) ([2]; 15% [C2mim][OAc]) [µmol/min/mg] | Sugars produced (sum of glucose, cellobiose and xylose) ([3]; 0% [C2mim][OAc]) [µmol/min/mg] | Sugars produced (sum of glucose, cellobiose and xylose) ([3]; 5% [C2mim][OAc]) [µmol/min/mg] | Sugars produced (sum of glucose, cellobiose and xylose) ([3]; 10% [C2mim][OAc]) [µmol/min/mg] | Sugars produced (sum of glucose, cellobiose and xylose) ([3]; 15% [C2mim][OAc]) | decrease of the yield of sugars from hydrolysis of pretreated Avicel [4] [%] | Sugars produced (sum of glucose, cellobiose and xylose) ([4]; 0% [C2mim][OAc]) [µmol/min/mg] | Sugars produced (sum of glucose, cellobiose and xylose) ([4]; 5% [C2mim][OAc]) [µmol/min/mg] | Sugars produced (sum of glucose, cellobiose and xylose) ([4]; 10% [C2mim][OAc]) | Sugars produced (sum of glucose, cellobiose and xylose) ([4]; 15% [C2mim][OAc]) [µmol/min/mg]
B1 | 0.54 ± 0.1 | 0.5 ± 0.1 | 0.52 ± 0.1 | 0.6 ± 0.08 | 0.58 ± 0.1 | 0.59 ± 0.1 | 0.57 ± 0.1 | 0.59 ± 0.1 | 2.14 ± 0.1 | 2.2 ± 0.14 | 2.0 ± 0.2 | 1.9 ± 0.1 µmol/min/mg | 10 | 3.2 ± 0.2 | 3.3 ± 0.2 | 3.1 ± 0.2 µmol/min/mg | 2.9 ± 0.06
B2 | 1.1 ± 0.1 | 1.0 ± 0.2 | 0.9 ± 0.1 | 0.6 ± 0.1 | 3 ± 0.9 | 2 ± 0.3 | 2.4 ± 0.8 | 2.3 ± 0.5 | 9 ± 1 | 8 ± 0.9 | 7 ± 1 | 5.9 ± 1^ μmoles min^−1 mg^−1 | 43 | 6.6 ± 0.8 | 6 ± 0.5 | 5.7 ± 1^ μmoles min^−1 mg^−1 | 4 ± 0.5
